In article PMC11398408 (bioRxiv, 2024):

Molecular target: UBE2D1 (UniProt P51668 1-147)
Test: ITC

Chain of UBE2D1 (P51668 whole entry): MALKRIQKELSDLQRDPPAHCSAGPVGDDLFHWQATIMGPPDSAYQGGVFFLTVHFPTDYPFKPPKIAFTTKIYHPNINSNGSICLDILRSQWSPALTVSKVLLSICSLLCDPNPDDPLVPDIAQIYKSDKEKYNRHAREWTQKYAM

stoichiometry N	Kd	Binder
~1		UBOX-UBL (designed binder) AEIDYSDAPDEFRDPIMDTLMTDPVRLPSGTVMDRSIILRHLLNSPTDPFNRQTLTESMLEPVPELKEQIQAWMREKQNSDHGGSSGGSSGGSSMWIQVRTMDGRQTHTVDSLSRLTKVEELRRKIQELFHVEPGLQRLFYRGKQMEDGHTLFDYEVRLNDTIQLLVRQS
~1	3.1 ± 0.7 µM	RING-UBL (designed binder) SLTAQQSSLIREDKSNAKLWNEVLASLKDRPASGSPFQLFLSKVEETFQCICCQELVFRPITTVCQHNVCKDCLDRSFRAQVFSCPACRYDLGRSYAMQVNQPLQTVLNQLFPGYGNGRGGSSGGSSGGSSGGSSMWIQVRTMDGRQTHTVDSLSRLTKVEELRRKIQELFHVEPGLQRLFYRGKQMEDGHTLFDYEVRLNDTIQLLVRQS
